For 35 molecules, Kd results are on record in US20230250134A1 (University of Washington, published 2023).

Where no end group is shown, it is not given here.

Test [1] addresses SARS-COV-2 Spike glycoprotein (SARS-CoV-2, UniProt P0DTC2 14-1208). Description: estimated Kd for Spike (avidity), Table 10.
Test [2] has as its target SARS-COV-2 Spike glycoprotein receptor binding domain (RBD) (SARS-CoV-2, UniProt P0DTC2 319-541).

B1: AHB2-2 (designed binder)
chain: ELEEQVMHVLDQVSELAHELLHKLTGEELERAAYFNWWATEMMLELIKSDDEREIREIEEEARRILEHLEELARK
Consider B1, for which the Kd in test [1] is 0.1 nM; in test [2] it was 0.2 nM.

B2: LCB1_v1.1-PRO-LCB1_v1.1 (1PRO1) (designed binder)
chain: DKENILQKIYEIMKTLDQLGHAEASMQVSDLIYEFMKQGDERLLEEAERLLEEVERAGSGGSGGSGGSPVPSTPPTPSPSTPPTPSPSPVPSTPPTPSPSTPPTPSPSPVPSTPPTPSPSTPPTPSPSASGDKENILQKIYEIMKTLDQLGHAEASMQVSDLIYEFMKQGDERLLEEAERLLEEVER
On to B2, for which the Kd in test [1] is 0.1 nM; in test [2], 0.2 nM.

B3: LCB3-2 (designed binder)
chain: NDDELLMLVTDLVAEALLFAKDEEIKKRVFTLFELADKAYKNNDRDTLSKVVSELKELLERLQ
The molecule B3 came in with a Kd in test [2] of 0.2 nM.

B4: LCB1-24GS-LCB1 (designed binder)
chain: DKEWILQKIYEIMRLLDELGHAEASMRVSDLIYEFMKKGDERLLEEAERLLEEVERGGGSGGGSSGGSGGSSGGGSGGGSDKEWILQKIYEIMRLLDELGHAEASMRVSDLIYEFMKKGDERLLEEAERLLEEVER
In test [2], B4 showed a Kd of 0.2 nM.

B5: LCB1_v1.1-GSLCB1_v1.1 (1GS1) (designed binder)
chain: DKENILQKIYEIMKTLDQLGHAEASMQVSDLIYEFMKQGDERLLEEAERLLEEVERGGGGSGGGGSGGGGSGGGGSGGGGSGGGGSGGGGSGGGGSGGGGSGGGGSGGGGSGGGGSGGGGSGGGGSGGGGSDKENILQKIYEIMKTLDQLGHAEASMQVSDLIYEFMKQGDERLLEEAERLLEEVER
Consider B5, for which the Kd in test [1] is 0.1 nM; in test [2], 0.2 nM.

B6: AHB1-2 (designed binder)
chain: DEDLEELERLYRKAEEVAKEAEEASRRGDKERAKELLERALHLFDQVFELAQELQEKLTDEKRQKATHLDKAVHEAADELYQRVR
Molecule B6 registered a Kd in test [2] of 0.2 nM.

B7: LCB4-2 (designed binder)
chain: DREERLKYLEMLLELAVERNDPYLIFDVAIELLRLAEENNDERIYERAKRILEEVE
In the case of B7, the Kd in test [1] was 0.1 nM; in test [2], 0.2 nM.

B8: LCB1-4 (designed binder)
chain: DKENILQKIYEIMKTLDQLGHAEASMQVSDLIYEFMKQGDERLLEEAERLLEEVER
notes: also called LCB1_v1.1
For the molecule B8, the Kd in test [1] was 0.1 nM; in test [2], 0.2 nM.

B9: LCB1_v1.2 (designed binder)
chain: DKENILQKIYEIMKTLDQLGHAEASMYVSDLIYEFMKQGDERLLEEAERLLEEVER
Take B9: the Kd in test [1] was 0.1 nM; in test [2], 0.2 nM.

B10: LCB1_v1.4 (designed binder)
chain: DKENILQKIYEIMKTLEQLGHAEASMQVSDLIYEFMKQGDENLLEEAEQLLQEVER
For B10, the Kd was 0.1 nM in test [1] and 0.2 nM in test [2].

B11: LCB1-5 (designed binder)
chain: DKENILQKIYEIMKTLDQLGHAEASMNVSDLIYEFMKQGDERLLEEAERLLEEVER
As to B11, the Kd in test [1] was 0.1 nM; in test [2], 0.2 nM.

B12: LCB1_v1.5 (LCB1_v1.3 with N-link Glycosylation) (designed binder)
chain: DKENILQKIYEIMKTLEQLGHAEASMNVSDLIYEFMKQGDERLLEEAERLLEEVER
modifications: also: N-linked glycosylation, site not given here
For B12, the results for the Kd in test [1] and in test [2] were 0.1 nM and 0.2 nM, respectively.

B13: LCB2-1 (designed binder)
chain: SDDEDSVRYLLYMAELRYEQGNPEKAKKILEMAEFIAKRNNNEELERLVREVKKRL
Consider B13, for which the Kd was 0.1 nM in test [1] and 0.2 nM in test [2].

B14: LCB2-2 (designed binder)
chain: SDDEDAVRYLLYMAELLYKQGNPEEAKKLLELAEFIAKRNNNEELERLVREVKKRL
Regarding B14, the Kd was 0.1 nM in test [1] and 0.2 nM in test [2].

B15: AHB1-1 (designed binder)
chain: DEDLEELERLYRKAEEVAKEAKDASRRGDDERAKEQMERAMRLFDQVFELAQELQEKQTDGNRQKATHLDKAVKEAADELYQRVR
Take B15: in test [2], the Kd was found to be 0.2 nM.

B16: LCB1_v1.1_Cys (designed binder)
chain: DKENILQKIYEIMKTLDQLGHAEASMQVSDLIYEFMKQGDERLLEEAERLLEEVERC
In the case of B16, the Kd is 0.1 nM in test [1] and 0.2 nM in test [2].

B17: LCB4-1 (designed binder)
chain: QREKRLKQLEMLLEYAIERNDPYLMFDVAVEMLRLAEENNDERIIERAKRILEEYE
With B17, the Kd is 0.1 nM in test [1] and 0.2 nM in test [2].

B18: LCB3_v1.2-GS3-LCB3_v1.2 (3GS3) (designed binder)
chain: NDDELHMQMTDLVYEALHFAKDEEIQKHVFQLFEKATKAYKNKDRQKLEKVVEELKELLERLLSGGGGSGGGGSGGGGSGGGGSGGGGSGGGGSGGGGSGGGGSGGGGSGGGGSGGGGSGGGGSGGGGSGGGGSGGGGSNDDELHMQMTDLVYEALHFAKDEEIQKHVFQLFEKATKAYKNKDRQKLEKVVEELKELLERLLS
As for B18, the Kd was 0.1 nM in test [1] and 0.2 nM in test [2].

B19: LCB5-2 (designed binder)
chain: SLEEVKEILKELKKELSPEDRRLIEEALRLLEEGNPAMASMVLSDLVFLLGDPRVIELLMLVTKT
In turn, B19 registered a Kd in test [2] of 0.2 nM.

B20: LCB8-1 (designed binder)
chain: PIIELLREAKEKNDEFAISDALYLVNELLQRTGDPRLEEVLYLIWRALKEKDPRLLDRAIELFER
In turn, B20 gave a Kd in test [2] of 0.2 nM.

B21: LCB8-2 (designed binder)
chain: PVTELLREAKEKNDPMAISDALFLVFELAQRTGDPRLEEVLFLIWRALKEKDPRLLDRAIELFER
Regarding B21, the Kd in test [2] was determined as 0.2 nM.

B22: LCB5-1 (designed binder)
chain: SLEELKEQVKELKKELSPEMRRLIEEALRFLEEGNPAMAMMVLSDLVYQLGDPRVIDLYMLVTKT
As for B22, the Kd in test [2] came to 0.2 nM.

B23: LCB7-1 (designed binder)
chain: DDDIRYLIYMAKLRLEQGNPEEAEKVLEMARFLAERLGMEELLKEVRELLRKIEELR
B23: the Kd in test [1] was 0.1 nM; in test [2], 0.2 nM.

B24: LCB7-2 (designed binder)
chain: DDDVRYLIYMAKLLLEQGNPEEAEKVLESARFAAELLGNEELLKEVRELLRKIEELR
As for B24, the Kd was 0.1 nM in test [1] and 0.2 nM in test [2].

B25: LCB1-36GS-LCB1 (designed binder)
chain: DKEWILQKIYEIMRLLDELGHAEASMRVSDLIYEFMKKGDERLLEEAERLLEEVERGGGSGGGSGGSGGSGGGSGGGSGSGGSGGGGSGGGSDKEWILQKIYEIMRLLDELGHAEASMRVSDLIYEFMKKGDERLLEEAERLLEEVER
In turn, B25 returned a Kd in test [2] of 0.2 nM.

B26: AHB2-1 (designed binder)
chain: ELEERVMHLLDQVSELAHELLHKLTGEELQRATHFDKWANEAILELIKSDDEREIREIEEEARRILEHLEELARK
Turning to B26, the Kd in test [2] is 0.2 nM.

B27: Mucin_LCB1_v1.3 (designed binder)
chain: AKAKAKAKAKAKAKAKAKAKGGDKENILQKIYEIMKTLEQLGHAEASMQVSDLIYEFMKQGDERLLEEAERLLEEVER
In the case of B27, the Kd in test [2] was found to be 0.2 nM.

B28: 36175 (5_LCB1_linker14) (designed binder)
chain: DKEWILQKIYEIMRLLDELGHAEASMRVSDLIYEFMKKGDERLLEEAERLLEEVERGGSGSSGGSGSGSGDKEWILQKIYEIMRLLDELGHAEASMRVSDLIYEFMKKGDERLLEEAERLLEEVERGGSGSSGGSGSGSGDKEWILQKIYEIMRLLDELGHAEASMRVSDLIYEFMKKGDERLLEEAERLLEEVERGGSGSSGGSGSGSGDKEWILQKIYEIMRLLDELGHAEASMRVSDLIYEFMKKGDERLLEEAERLLEEVERGGSGSSGGSGSGSGDKEWILQKIYEIMRLLDELGHAEASMRVSDLIYEFMKKGDERLLEEAERLLEEVER
As to B28, the results for the Kd in test [1] and in test [2] were 0.1 nM and 0.2 nM, respectively.

B29: Mucin_LCB1_v1.1_Cys (designed binder)
chain: AKAKAKAKAKAKAKAKAKAKGGDKENILQKIYEIMKTLDQLGHAEASMQVSDLIYEFMKQGDERLLEEAERLLEEVERC
As for B29, the results for the Kd in test [1] and in test [2] were 0.1 nM and 0.2 nM, respectively.

B30: LCB3_v1.2 (designed binder)
chain: NDDELHMQMTDLVYEALHFAKDEEIQKHVFQLFEKATKAYKNKDRQKLEKVVEELKELLERLLS
notes: also called LCB3-3
Regarding B30, the Kd in test [2] stood at 0.2 nM.

B31: LCB3_v1.5 (designed binder)
chain: NDDELHMQMTDLVYEALHKAKDEEMQKRVFQLFEQADKAYKTKDRQKLEKVVEELKELLERLLS
In the case of B31, in test [2], the Kd is 0.2 nM.

B32: LCB3_v1.3 (designed binder)
chain: NDDELHMQMTDLVYEALHFAKDEEFQKHVFQLFEKATKAYKNKDRQKLEKVVEELKELLERLLS
The molecule B32 showed a Kd in test [2] of 0.2 nM.

B33: LCB3_v1.4 (designed binder)
chain: NDDELHMQMTDLVYEALHKAKDEEFQKHVFQLFEKATKARKNKDRQKLEKVVEELKELLERLLS
As to B33, the Kd in test [2] amounted to 0.2 nM.

B34: LCB3-4 (designed binder)
chain: NDDELHMQMTDLVYEALHFAKDEEIQKHVFQLFENATKAYKNKDRQKLEKVVEELKELLERLLS
Take B34: the Kd in test [2] worked out at 0.2 nM.

B35: LCB3_v1.1 (designed binder)
chain: NDDELHMQMTDLVYEALHFAKDEEFQKHVFQLFEKATKAYKNNDRQKLEKVVEELKELLERLLS
Regarding B35, the Kd in test [2] came out at 0.2 nM.
